# Assay results from a protein production outcome set (Wang et al. 2014).
# Assay: label from the status in PepcDB records
row,Sequence,protein production
1,AANPDIMYRLLIQSVVDYAIYLLTPEGIVANWNPGAQRAKGYRAEEIVGQHYSLFYTDAERAAGLPAFNLEQARSTGRFEETGARLRKDGTAFHAHVVIEAVYDDAGQLVGFAKVTRDISERHRQELELLQAKELAEQYSQEMAKLSQFLDSVIANIP,failed
2,AAVLTQDKNTPTYGPANGKVTVIEFFDYQCVYCSRLAPVMEQVIKAHPQTRFAFKEWPIFGGRWESSLEAAKTGLQIYQQKGADAYLAYHNGIYATGHNEGKLTTADIQQQAKKAGFDAKKAADVEPVLQSINDLAQEIGLSGTPGVIVMPTTGATEASITVFPGLADKASLEAAIKKAGG,failed
3,ADAQLIGHTNPSGEITFGEETFTIAQALDTLERDYREVYPLNVTTADVEALPDFATALPKADTDSEEANASAGDKAVHVLLPVFPGTNSEYDMAEAFEAAGATTEFHIIRNLNSEMLAADTEAFITKLQSANILAFSGGFSLGDEPDGSAKFMAAFLRSDTVAAAIKDFVARDGLVLGICNGFQALVKSGFLPYGDPAKMSAESPTLAHNRQLRHVSRIATTRVSSVASPWLSTFTPGQQHLMPVSHGEGRFVVSEKEAQALFSAGQVAFQYVDAEGTPTMEAPANPNGSNYAIEGIISPDGRILGKMGHPERFRDGLMRNIPGMEIQDIFANAVNYCRKSQR,failed
4,ADEEESTPCDNVETDQQTFACAAFNKQVAERELQSAYDELIERMRDQFGDEAGLMSRIEAAEKVWSQLRDADCKVETHAEQPGSNAYQIAWNSCIAQRSDERAEYLRSLGSQNSDEPAPED,not failed
5,ADVSSSDLATLRRLTNEFQAELATLGTRVDDLEARTSELENQQFSTTTKLNGEAIFSISGATGGEPEGNDAQITFNNRLRLNLTTSFTGKDALITGLQAYNFSAGKSITGTGNVAETLFPNDASILGDSMTNLAWEPQFAGLNPQNLQPSCGNNSLCLYKLLYVRPITDKLTAFIGPKAEVTDAFPAILPFASEGQGALSRFATLNPVLRMSGGTSGTGLASAAGFIYKPNDVIDWRALYGSVNAAIPGNEGFPGTPLGAGLFNGSFIAATQLTLHPNDKLDLGLNYAYSYHQINIAGTGLTGAETRILGDLPLTTPVRFNSFGATVNWRVSPKVNLTGYGAYIMTDQANSGSAYTNLSSWMAGLYFPDAFAKGNAAGILFGQPLYRVDAGNGASLSPANIGDRQTPYQLEAFYRHQINDHISITPGAFVIFNPEGDAQNETTSVFALRTTYTF,failed
6,AEEKVKDEAMQIMGMFQILPRLVVFDLDYTLWPFYCECRSKREMPSMYPQAKGILSALKEKGIEMAIASRSPTSDIANTFLDKLNIKPMFVAKVSKMGVTSILVGDGVTLGAFRQGLTEFTQNHNSIEKNKQVWRDKYSG,failed
7,AEGRGKARADSLKAGSQGLSANKRRADGSFESVVASSLRKGDVVRVQAGEMIPGDGEVIEGVAAVNEAAITGESAPVIRESGGDRSAVTGNTQVVSDWLLVRIGANPGESTLDRMIALVEGAKRQKTPNEV,failed
8,AEGTRGRSSTARCSLFGSDFVNTFDGSMYSFAGYCSYLLAGGCQKRSFSIIGDFQNGKRVSLSVYLGEFFDIHLFVNGTVTQGDQRVSMPYASKGLYLETEAGYYKLSGEAYGFVARIDGSGNFQVLLSDRYFNKTCGLCGNFNIFAEDDFMTQEGTLTSDPYDFANSWALSSGEQWCERASPPSSSCNISSGEMQKGLWEQCQLLKSTSVFARCHPLVDPEPFVALCEKTLCECAGGLECACPALLEYARTCAQEGMVLYGWTDHSACSPVCPAGMEYRQCVSPCARTCQSLHINEMCQERCVDGCSCPEGQLLDEGLCVESTECPCVHSGKRYPPGTSLSRDCNTCICRNSQWICSNEECPGECLVTGQSHFKSFDNRYFTFSGICQYLLARDCQDHSFSIVIETVQCADDRDAVCTRSVTVRLPGLHNSLVKLKHGAGVAMDGQDIQLPLLKGDLRIQHTVTASVRLSYGEDLQMDWDGRGRLLVKLSPVYAGKTCGLCGNYNGNQGDDFLTPSGLAEPRVEDFGNAWKLHGDCQDLQKQHSDPCALNPRMTRFSEEACAVLTSPTFEACHRAVSPLPYLRNCRYDVCSCSDGRECLCGALASYAAACAGRGVRVAWREPGRCELNCPKGQVYLQCGTPCNLTCRSLSYPDEECNEACLEGCFCPPGLYMDERGDCVPKAQCPCYYDGEIFQPEDIFSDHHTMCYCEDGFMHCTMSGVPGSLLPDAVLSSPLSHRSKR,failed
9,AEITEVRIYKSKGNGSVKAYASVSFDNEFVVKGLKVVEGEKGLWVSMPSRRMKDGSFQDVFHPVSREARDKIVDAVLKAYQEQE,failed
10,AESESFVLDFSQPSADYLDFRNRLQADHVCLENCVLKDKAIAGTVKVQNLAFEKTVKIRMTFDTWKSYTDFPCQYVKDTYAGSDRDTFSFDISLPEKIQSYERMEFAVYYECNGQTYWDSNRGKNYRIIRAELKSTQGMTKPHSGPDLG,not failed
11,AGSATITYSVLEETDRGSLVGNLAKDLGLSLRELITRGAQILSKGNKQLLQLEQKSGNLLLKEKLDREELCGSTNPCILHFQVLLKSPVQFIQGEIQLQDVNDHAPEFMEDE,not failed
12,AHARLQITQFAMDSVGIGIQWIDPDSGRFVYANRHTAELLGYSEQEMLTLTVSDIDPAFPLPAFHATMARLRQSRYTQFQSQIETRGGVPIPVEITLYYMEGDADAPARVIAFLTDISRRKETEQTLVQAKEAAEKANLAKTAFVANMSHEIRTPMNAILGMV,failed
13,AHNLALGAHGEDLAARYLTEAGMEIVDRNWRSRYGEVDLIAAEGDWLVFVEVKTRRGLGYGSPAEAVTFSKQRRIRLLAVEWLRDSGRHWSRVRFDVVAIMIGHGPQPQIEHVRD,failed
14,AHQYGVKSYIGIPRSYSHDRTDFMQSEQAEILYYDGKYEETVEFIRDFSKDNGLYDASPGSANSSIDKMMYATIAFEIYEALLTVPSYVIVPVGNGTTLAGIYHGFRRMYDEGVIDHLPRMVGVSTSGGNPIVDSWRHGYSRVVDLNPEEIRETSINEPLVSYRSFDGQDALSAIRETHGRAMYVSDEEMVYYSNLIYSAEGLNPLPASASAVAAIGHLKVKQDETVVSVITGRQI,failed
15,AIAAQTERRDAPELPDFSLLKRLARDQLIFLLEQLPGKKDLFIDADLMSPLDRIANVTILKQHEVDKLYKVELKPIVSSSDQLCFLIRPRIQTVKWISDLVNSDKVAGRFRRYKIIFTPQKFYACETVLEEQGVYGDVTTDEWNFYILPLDDDILSLELPEFFRDNFLEGDQRWVTTGGGALHLLQSVYGSFSKVYGIGRCAKMVYESWRELMEEGEQRTRQPEFAKVFLIDRDVDFVTPLCSQVVYEGLVDDIFRIKCSSVEFGPDVTSSDKSIKVMLNSQDKVFNEIRNEHFSNVFGFLSQKAKNLQTAYDKRRGMDIQQMKAFVADELKGLKQEHRLLSLHIGASESIMKKKTKQDFQELLKTEHSLLEGFEIRECIAYIEEHINRQVSMIDSLRLLCLLSITENGLLSKDYRSLKAQYLQSYGIEHLLTFANLRQLGLLEEQQTGETLTVMESKVGKLVNDKTAGKLTDAFSSLAKKSNFRALSKRLALVPKSGEEYDLRVPRDMAYIFSGAYIPLSCKLIEQVLERDGWTGLEEVTRMLNGQDFAVTGGSSSSEARNKSNGQRIILVMFLGGCTYSEISALRFLGKERGCRFIVLTTAITNSGRLLEALLDKHV,failed
16,AIARSEWPFDYASEADAMLHRITPENFEKLVRFAARLLRVGEIIALPTDTVYGLAAAARNSHGIELLYQTKQRDLRKPLAIAVPSVEDVSVYLHTEHLPPGLLEAILPGPLTLLLRQREDYVGIDLQDVRIDQYRGWERAKRLAPNLNLRRDGLLGVRVPDASFACAVSRELGDPLALTSANVSGRGDCGSVDEFRALWSACAAVFDGGAMPKPVMPSTVVDLSVPGTFRITRAGWMATDLVRILENKFGLTNKSANTSN,failed
17,AIASRAASLRAELTSLANAFEEERISSAERLDADLVRQAVEQAKPENLEQWKQVVHDATAKLQQFWEDSEQALIRETYALATSYLRESDDEVHRLQMTKKALEEQLETERRRSTRIEEQLAALQSRLLDSAAPAATTPADDARTQQEVLRSELQGFMQELVRNQRESLRVLQEELQRVREEASVREENLLRQIAHLKTELAVARTDNEVSSRQLRQLETSAGREEVQDELGPGTIWPPHLTPRRGHRRFQRHNRLEDAPAPPEF,failed
